Laboratory results taken from patent publication US20240374729A1 (published 2024).
Each block holds one binder with its values, some of them ahead of it.

Columns and labels:
[1] = molecular target: T1, NY-ESO-1 peptide on HLA-A*02:01 (human); assay: cytokine release
T1 peptide: SLLMWITQC

[2] = molecular target: T2, PRAME peptide on HLA-A*02:01 (human); assay: killing
T2 peptide: SLLQHLIGL

[3] = molecular target: T3, PRAME peptide on HLA-A*02:04 (human); assay: cytokine release
T3 peptide: SLLQHLIGL

[4] = molecular target: T4, PRAME peptide on HLA-A*02:09 (human); assay: cytokine release
T4 peptide: SLLQHLIGL

[5] = molecular target: T5, PRAME peptide on HLA-A*02:02 (human); assay: cytokine release
T5 peptide: SLLQHLIGL

binding result [1]: recognises
B1: NY-ESO-1/LAGE-1 specific TCR of SEQ ID NOs 41 and 42 (TCR, V domains shown)
Valpha: QKEVEQNSGPLSVPEGAIASLNCTYSDRGSQSFFWYRQYSGKSPELIMFIYSNGDKEDGRFTAQLNKASQYVSLLIRDSQPSDSATYLCAADDKIIFGKGTRLHILP
Vbeta: DAGVIQSPRHEVTEMGQEVTLRCKPISGHDYLFWYRQTMMRGLELLIYFNNNVPIDDSGMPEDRFSAKMPNASFSTLKIQPSEPRDSAVYFCASSRGGSGYTFGSGTRLTVV

binding result [3]: recognises
binding result [4]: recognises
binding result [5]: recognises
B2: T23.8-2.1-027-004 (TCR, V domains shown)
Valpha: GQQLNQSPQSMFIQEGEDVSMNCTSSSIFNTWLWYKQDPGEGPVLLIALYKAGELTSNGRLTAQFGITRKDSFLNISASIPSDVGIYFCAGLADYGGSQGNLIFGKGTKLSVKP
Vbeta: DSGVTQTPKHLITATGQRVTLRCSPRSGDLSVYWYQQSLDQGLQFLIQYYNGEERAKGNILERFSAQQFPDLHSELNLSSLELGDSALYFCASSVWASGGYEQYFGPGTRLTVT
binding result [2]: recognises
